Results on 4 molecules are retold here after patent publication US20220396632A1 (VERSEAU THERAPEUTICS, published 2022).

In one experiment the target is T1, SulfoTyr C4 peptide (not fully specified; Y4, Y7 and Y9 sulfated (SO3); C-terminal biotin).
T1 construct: also called C4 alpha chain peptide; human sulfotyrosinylated C4 peptide
T1 peptide: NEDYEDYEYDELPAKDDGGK
The experiment is described as follows: ELISA, 50 nM mAb. How it is done:
(§1) Recombinant PSGL-1-hFc1 chimera protein consisting of PSGL-1's extracellular domain (ECD) served as a positive control. […] Primary antibody was added (25 ul per well) in duplicate at 50 nM in assay buffer (blocking buffer containing 0.05% Tween®20) into test and control (just blocked) wells and the plate incubated for 45 min at 37° C.
In general terms: An ELISA detects its analyte on a solid surface through an enzyme-linked reagent.

The target of experiment [1] is T2, Sulfotyr fibrinogen γ peptide (not fully specified; Y8 and Y12 sulfated (SO3); C-terminal biotin).
T2 construct: also called Fibrinogen gamma peptide; human sulfotyrosinylated fibrinogen peptide
T2 peptide: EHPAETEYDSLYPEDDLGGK
The experiment is described as follows: ELISA, 50 nM mAb. How it is done:
as §1

In experiment [2] the target is T3, Human complement C4 protein (Millipore Sigma, Cat. 204886) (human, UniProt P0C0L4 20-675; P0C0L4 680-1446; P0C0L4 1454-1744, limits assumed, natural sulfotyrosines).
T3 construct: mature
The experiment is described as follows: ELISA, 50 nM mAb. Here is the method:
as §1

Experiment [3] concerns the target T4, Human fibrinogen protein (ThermoFisher, RP-43142) (human, UniProt P02671 20-629; P02675 31-491; P02679 27-453, limits assumed, natural sulfotyrosines).
T4 construct: mature; Native dimer with 3 pairs of non-identical chains; also called gamma-fibrinogen; γ fibrinogen protein
T4 sequence (looked up) 1: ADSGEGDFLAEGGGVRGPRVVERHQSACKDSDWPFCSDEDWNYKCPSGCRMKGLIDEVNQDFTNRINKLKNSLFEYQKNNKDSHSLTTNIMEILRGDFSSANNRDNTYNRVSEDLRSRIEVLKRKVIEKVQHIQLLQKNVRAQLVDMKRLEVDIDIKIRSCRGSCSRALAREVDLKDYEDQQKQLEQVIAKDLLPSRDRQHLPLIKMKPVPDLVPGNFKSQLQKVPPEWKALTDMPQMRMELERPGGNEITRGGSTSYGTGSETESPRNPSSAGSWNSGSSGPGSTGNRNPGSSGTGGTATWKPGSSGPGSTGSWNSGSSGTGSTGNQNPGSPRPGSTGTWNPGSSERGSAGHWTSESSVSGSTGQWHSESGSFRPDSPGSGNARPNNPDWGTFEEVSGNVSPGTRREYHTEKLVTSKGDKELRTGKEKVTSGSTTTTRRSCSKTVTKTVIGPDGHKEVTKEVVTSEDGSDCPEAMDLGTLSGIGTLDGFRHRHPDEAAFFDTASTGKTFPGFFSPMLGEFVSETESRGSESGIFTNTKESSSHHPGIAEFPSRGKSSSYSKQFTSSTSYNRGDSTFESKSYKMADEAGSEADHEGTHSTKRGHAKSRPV
T4 sequence (looked up) 2: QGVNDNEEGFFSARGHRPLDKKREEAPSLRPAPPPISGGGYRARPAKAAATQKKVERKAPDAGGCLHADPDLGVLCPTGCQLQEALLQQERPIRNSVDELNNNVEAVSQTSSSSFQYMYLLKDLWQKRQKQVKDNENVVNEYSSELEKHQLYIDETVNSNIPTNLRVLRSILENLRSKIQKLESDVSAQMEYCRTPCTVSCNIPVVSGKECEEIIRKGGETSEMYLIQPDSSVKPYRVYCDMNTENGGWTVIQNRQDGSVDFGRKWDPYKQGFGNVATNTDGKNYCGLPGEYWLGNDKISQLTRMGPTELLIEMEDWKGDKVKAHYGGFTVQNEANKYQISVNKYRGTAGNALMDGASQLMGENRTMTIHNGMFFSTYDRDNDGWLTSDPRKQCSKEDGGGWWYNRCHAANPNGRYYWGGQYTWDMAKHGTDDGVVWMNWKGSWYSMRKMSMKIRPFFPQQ
T4 sequence (looked up) 3: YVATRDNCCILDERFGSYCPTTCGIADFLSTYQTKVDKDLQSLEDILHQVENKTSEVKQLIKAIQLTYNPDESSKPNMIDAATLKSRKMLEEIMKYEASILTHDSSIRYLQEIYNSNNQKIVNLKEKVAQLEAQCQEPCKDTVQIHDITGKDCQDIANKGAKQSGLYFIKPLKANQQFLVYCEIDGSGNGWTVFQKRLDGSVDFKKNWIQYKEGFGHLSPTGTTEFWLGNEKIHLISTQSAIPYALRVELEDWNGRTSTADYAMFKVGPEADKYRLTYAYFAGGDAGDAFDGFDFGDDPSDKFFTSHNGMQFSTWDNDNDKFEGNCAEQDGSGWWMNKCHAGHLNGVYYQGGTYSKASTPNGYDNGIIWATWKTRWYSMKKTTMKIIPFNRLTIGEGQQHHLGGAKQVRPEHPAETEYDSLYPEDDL
As to the kind of experiment: ELISA, 50 nM mAb. Here is the method: as §1

A further experiment addresses T5, SulfoCCK biotin peptide (human).
T5 construct: also called sulfotyrosine CCK peptide
T5 peptide: SHRISDRD[sY]MGWMDFGGK(Biotin)
The experiment is described as follows: ELISA, 50 nM mAb. Here is the method:
as §1

The target of experiment [4] is T6, Sulfotyrosine CCR2b biotin peptide (human).
T6 construct: also called CCR2b peptide
T6 peptide: TTFFD[sY]D[sY]GAPSHGGK(Biotin)
The experiment is described as follows: ELISA, 50 nM mAb. Here is the method: as §1

The target of experiment [5] is T7, Sulfotyrosine D6 biotin peptide (human).
T7 construct: also called D6 peptide
T7 peptide: ENSSFY[sY][sY]D[sY]LDEVAFGGK(Biotin)
As to the kind of experiment: ELISA, 50 nM mAb. How it is done:
as §1

Experiment [6] has as its target T8, Scrambled Y42,52,63(SO3) PSGL-1(42-62) biotin peptide (sulfotyrosine at peptide positions 1, 11 and 22; C-terminal Lys-biotin).
T8 peptide: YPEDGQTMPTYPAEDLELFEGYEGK
The experiment is described as follows: ELISA, immobilized biotin peptide. How it is done: (§2) A typical ELISA was performed by coating high binding half-well plates (Corning Cat. #3690) with 3 ug/mL/25 ul per well of biotinylated N-terminal PSGL-1 peptides, which incorporated residues 42 to 62 of the protein, in PBS, pH 7.4, overnight at 4° C. The peptide was unmodified or contained sulfated tyrosine at all 3 tyrosine positions (46, 48, and 51) or at one position (tyr51) (Table 7).
(§3) PSGL-1 protein or peptide served as a positive control. […] […] […] For each antibody, duplicate values were averaged and average assay background was subtracted.

Experiment [7] deals with T9, Biotin PSGL-1(42-62) peptide, unmodified (human, C-terminal Lys-biotin).
T9 construct: Residues 42-62 followed by GGGK-biotin; also called WT; wild-type
T9 peptide: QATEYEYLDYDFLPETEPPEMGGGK
The experiment is described as follows: ELISA, immobilized biotin peptide. How it is done:
as §2, §3

For experiment [8], the target named is T10, Biotin Y46,48,51(SO3) PSGL-1(42-62) peptide (human, sulfotyrosine at Y46, Y48 and Y51; C-terminal Lys-biotin).
T10 construct: also called fully sulfated N-terminal PSGL-1 peptide
T10 peptide: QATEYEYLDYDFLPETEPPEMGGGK
As to the kind of experiment: ELISA, immobilized biotin peptide. How it is done:
as §2, §3

For experiment [9], the target named is T11, Cynomolgus PSGL-1(ECD)-hFc1 (cynomolgus macaque).
T11 construct: also called Cyno PSGL1-Fc; Cyno PSGL-1(ECD)-Fc
The experiment is described as follows: ELISA, 20 nM mAb on plate cyno PSGL-1(ECD)-Fc. How it is done: Antibody binding to plate-immobilized cyno PSGL-1(ECD) was determined either at one concentration (20 nM) or by generating full antibody binding curves (0.003-200 nM). A typical ELISA was performed by overnight coating at 4° C. with 3 ug/mL/25 ul per well of recombinant cyno PSGL-1(ECD) protein in PBS, pH 7.4, in high binding half-well plates (Corning Cat. #3690). […] Anti-PSGL-1 IgG in assay buffer (blocking buffer containing 0.05% tween 20) was added into test and control wells (20 nM/25 ul/well) and the plate incubated for 45 min at 37° C. […] The plate was incubated for 45 min at 37° C., and mAb bound to plate-immobilized target determined at A450 nm using HRP substrate (3,3′,5,5′-tetramethylbenzidine (TMB)). For each antibody, duplicate values were averaged and assay background subtracted.

Experiment [10] has as its target T12, Recombinant human PSGL-1(ECD)-hFc1 (R&D Systems, Cat. 3345-PS) (human, UniProt Q14242 42-305).
T12 construct: Bought; Gln42-Val295 counted on AAC50061; also called PSGL-1-Fc; PSGL-1-hFc1 chimera; not shown: human IgG1 Fc, Pro100-Lys330
T12 sequence: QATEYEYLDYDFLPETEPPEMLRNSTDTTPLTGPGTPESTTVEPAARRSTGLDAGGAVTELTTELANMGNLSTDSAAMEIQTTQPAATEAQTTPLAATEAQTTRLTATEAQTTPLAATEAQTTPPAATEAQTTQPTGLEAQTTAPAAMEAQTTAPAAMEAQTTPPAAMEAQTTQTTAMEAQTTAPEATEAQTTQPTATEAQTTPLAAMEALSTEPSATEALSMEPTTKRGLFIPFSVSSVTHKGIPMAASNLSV
The experiment is described as follows: ELISA, 50 nM mAb. How it is done:
as §1

Non-standard residues stand in square brackets, D forms with d. No end group written: not given here. *: point of attachment. Biotin = O=C1N[C@H]2[C@H](CS[C@H]2CCCCC(=O)*)N1; sY = N[C@@H](Cc1ccc(OS(=O)(=O)O)cc1)C(=O)O

T3 sequence (P0C0L4 20-675 limits assumed, form in doubt, chain 1 of 3): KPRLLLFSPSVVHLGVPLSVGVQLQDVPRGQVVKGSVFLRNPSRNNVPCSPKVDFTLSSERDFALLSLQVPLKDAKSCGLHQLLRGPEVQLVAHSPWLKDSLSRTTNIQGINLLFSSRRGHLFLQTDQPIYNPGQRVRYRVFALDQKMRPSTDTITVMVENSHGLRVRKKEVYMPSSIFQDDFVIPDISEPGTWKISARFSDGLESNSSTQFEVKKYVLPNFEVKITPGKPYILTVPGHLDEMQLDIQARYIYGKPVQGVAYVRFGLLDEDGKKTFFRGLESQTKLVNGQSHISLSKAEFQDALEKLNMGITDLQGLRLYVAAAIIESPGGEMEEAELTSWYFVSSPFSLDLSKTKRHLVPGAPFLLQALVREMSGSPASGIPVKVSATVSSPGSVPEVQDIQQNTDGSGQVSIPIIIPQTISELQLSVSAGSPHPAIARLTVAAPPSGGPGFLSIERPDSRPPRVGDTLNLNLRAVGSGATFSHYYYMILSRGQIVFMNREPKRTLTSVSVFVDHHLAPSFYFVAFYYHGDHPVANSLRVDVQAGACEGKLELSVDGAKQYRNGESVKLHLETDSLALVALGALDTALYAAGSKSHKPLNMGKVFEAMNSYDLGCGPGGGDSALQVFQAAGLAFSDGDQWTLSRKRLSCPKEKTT
T3 sequence (P0C0L4 680-1446 limits assumed, form in doubt, chain 2 of 3): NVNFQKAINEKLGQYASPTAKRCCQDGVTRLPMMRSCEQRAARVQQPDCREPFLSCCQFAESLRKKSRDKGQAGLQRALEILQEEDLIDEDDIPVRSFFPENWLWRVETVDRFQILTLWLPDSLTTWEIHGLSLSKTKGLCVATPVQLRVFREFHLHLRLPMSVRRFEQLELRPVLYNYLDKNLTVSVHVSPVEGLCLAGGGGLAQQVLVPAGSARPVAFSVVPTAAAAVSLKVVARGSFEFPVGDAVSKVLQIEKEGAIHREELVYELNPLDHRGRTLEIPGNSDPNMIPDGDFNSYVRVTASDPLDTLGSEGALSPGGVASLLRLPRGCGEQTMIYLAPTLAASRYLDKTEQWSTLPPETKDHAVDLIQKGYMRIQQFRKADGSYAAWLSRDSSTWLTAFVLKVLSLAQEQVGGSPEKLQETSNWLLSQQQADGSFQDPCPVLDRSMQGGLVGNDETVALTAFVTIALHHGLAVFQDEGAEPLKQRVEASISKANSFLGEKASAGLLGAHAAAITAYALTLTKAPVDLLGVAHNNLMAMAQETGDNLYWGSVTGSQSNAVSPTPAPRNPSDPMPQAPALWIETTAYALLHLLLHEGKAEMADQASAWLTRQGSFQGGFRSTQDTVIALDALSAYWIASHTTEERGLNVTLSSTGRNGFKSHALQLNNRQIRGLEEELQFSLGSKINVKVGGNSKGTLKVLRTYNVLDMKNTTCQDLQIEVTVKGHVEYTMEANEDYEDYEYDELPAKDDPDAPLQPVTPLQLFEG
T3 sequence (P0C0L4 1454-1744 limits assumed, form in doubt, chain 3 of 3): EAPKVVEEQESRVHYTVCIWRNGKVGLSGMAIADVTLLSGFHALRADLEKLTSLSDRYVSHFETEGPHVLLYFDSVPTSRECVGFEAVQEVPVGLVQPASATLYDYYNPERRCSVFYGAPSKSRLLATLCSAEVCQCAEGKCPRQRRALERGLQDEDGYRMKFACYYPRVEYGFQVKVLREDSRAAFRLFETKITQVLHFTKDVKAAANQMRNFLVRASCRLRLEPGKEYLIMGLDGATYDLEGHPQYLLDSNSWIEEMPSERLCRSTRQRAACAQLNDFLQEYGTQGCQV

B1: 01A11 (antibody, IgG4, V domains shown)
VH: EVKLLESGGGLVQPGGSLRLSCATSGFSFSDYWMSWVRQAPGKGLEWVASIKKDGSEKYYVDSVKGRFTISRDNAKNSLYVQMNSLRAEDTAIYYCVVFGAWGPGTLVTVSS
VL: DIVMTQTPLSLPVTLGQPASISCRSGRSLVYSDGNTYLNWFQQRPGQSPRRLIYKVSNRDSGVPDRFSGGGSGTDFTLKISRVEAEDVAIYYCMQGTHWPPTFGQGTKLEIK
In the case of B1, the “binding normalized to PSGL-1” value with SulfoTyr C4 peptide turned out to be 0.07; in experiment [1], 0.09; in experiment [2] it was 0.79; in experiment [3] it was 0.17; with SulfoCCK biotin peptide, 0.63; in experiment [4], 0.63. The “binding normalized to PSGL-1” value in [5] amounted to 0.11. Also, the “A450nm, 20 nM mAb” value in experiment [6] came to 0.03 A450nm; in [7], 1.12 A450nm; in [8], 2.67 A450nm. The binding result in experiment [6] was “no binding (tested: 20 nM)”. The molecule further displayed an A450nm in experiment [9] of 0.78 A450 nm.

B2: 08C10 (antibody, IgG4, V domains shown)
VH: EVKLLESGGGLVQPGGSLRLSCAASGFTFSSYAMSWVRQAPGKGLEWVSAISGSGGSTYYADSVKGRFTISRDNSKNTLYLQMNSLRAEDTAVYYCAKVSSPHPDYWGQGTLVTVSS
VL: LPVLTQPSSLSASPGASASLTCTLRSGLNVGTYRMYWYQQRPGSPPRYLLRYKSNSDKQQGSGVPSRFSGSKDASANAGILLISGLQSEDEADYYCLIWHNSAWVFGGGTKLTVL
In general, EC50 refers to the concentration that produces a half-maximal response. B2: the “binding normalized to PSGL-1” value amounted to 1.14 with SulfoTyr C4 peptide; 1.18 in experiment [1]; 1.22 in experiment [2]; 0.46 in [3]; 1.02 in the experiment with SulfoCCK biotin peptide; 1.27 in experiment [4]. For the same molecule, the A450nm in experiment [10] was determined as 2.3 A450nm; in experiment [9], 0.31 A450 nm. In addition, the binding result in experiment [6] is “no binding (tested: 20 nM)”. The EC50 was about 500 nM in experiment [7] and 0.33 nM in experiment [8]. In [8], the “A450nm, 20 nM mAb” value stood at 2.57 A450nm.

B3: 01A04 (antibody, IgG4, V domains shown)
VH: EVQLVQSGAEVKKPGASVKVSCKASGYTFTSYYIHWVRQAPGQGLEWMGIIRPSGGSTSYAQKFQGRVTMTRDTSTSTVYMELSSLRSEDTAMYYCARVGVGSFDYWGQGTLVTVSS
VL: DIQMTQSPSTLSASVGDRVTITCRASQSVSNWLAWYQQKPGKAPKLLIYKASSLESGVPSRFSGSGSGTEFTLTISSLQPDDFATYYCQWFRTFGPGTKVDIK
Take B3: the “binding normalized to PSGL-1” value with SulfoTyr C4 peptide amounted to 0.24; in experiment [1], 0.16; in [2], 0.87; in [3] it was 0.8; with SulfoCCK biotin peptide, 0.87; in experiment [4], 0.08. Moreover, the “binding normalized to PSGL-1” value in experiment [5] was 0.82. In addition, the entries for the “A450nm, 20 nM mAb” value in experiment [7] and in experiment [8] were 2.45 A450nm and 2.73 A450nm, respectively. In addition, the A450nm in [9] was found to be 1.81 A450 nm.

B4: 01E01 (antibody, V domains shown)
VH: EVQLVQSGGGVVQPGRSLRLSCAASGFTFSSYGMHWVRQAPGKGLEWVAVISYDGSNKYYADSVKGRFTISRDNSKNTLYLQMHSLRAEDTAVYYCANLVGTTNSWGQGTLVTVSS
VL: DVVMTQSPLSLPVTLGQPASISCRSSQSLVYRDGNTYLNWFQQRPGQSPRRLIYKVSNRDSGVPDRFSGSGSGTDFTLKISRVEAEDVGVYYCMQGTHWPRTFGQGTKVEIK
As to B4, the “binding normalized to PSGL-1” value with SulfoTyr C4 peptide was 0.83; in experiment [1] it was 0.85; in [2], 0.94; in experiment [3], 0.2; with SulfoCCK biotin peptide, 0.58; in [5], 0.75. Besides, the A450nm in experiment [10] stood at 2.32 A450nm; in experiment [9] it was 0.83 A450 nm. The binding result in experiment [6] was “no binding (tested: 20 nM)”. In addition, the “A450nm, 20 nM mAb” value in [7] was 0.26 A450nm; in experiment [8], 2.72 A450nm.
